Experimental data as given in article PMC7402034.

Each substance was assayed against SARS-CoV-2 S protein trimer (with mutations R683A and R685A, His-tag) (SARS-CoV-2) (UniProt P0DTC2) (assay: ELISA).

Row | Substance | Kd
1 | Human DC-SIGN (Fc-tag) (from UniProt Q9NNX6) (Fc fusion) | 0.192 nM
2 | Human DC-SIGNR (Fc-tag) (from UniProt Q9H2X3) (Fc fusion) | 0.986 nM
3 | Human MGL (Fc-tag) (from UniProt Q8IUN9) (Fc fusion) | 0.312 nM
